B2: entire unstructured N-terminal region (including the YG domain) of Arabidopsis thaliana PEX13, amino acids 1–193 (domain or fragment)
chain: MASQPAGGSPPKPWEKEGNTSGPNPFRPPSNTSTAGSVEASGTANPGEVVPPPVNRPNTAANMNSLSRPVPARPWEQQNYGSTMGGGYGSNLGMTSGYGSGTYGSALGGYGSSYGGGMYGGSSMYRGGYGGGGLYGSSGMYGGGAMGGYGGTMGGYGMGMGTGMGMGMGMGMGGPYGSQDPNDPFNQPPSPPGC
notes: PEX13 of Arabidopsis thaliana, GenBank NP_187412.1, amino acids 1-193; single engineered cysteine at the C terminus for covalent derivatization; In the permeation assay it stood as a hydrogel droplet formed at 40 mg/ml (2 mM); also called N-terminal fragment; full-length fragment; source: E. coli BL21 Rosetta 2(DE3), purified under denaturing conditions (Ni-NTA), tag removed with TEV protease; …

Data set [1] concerns the target B2. Briefly: hydrogel permeation assay (confocal microscopy); droplets of the PEX13 1-193 hydrogel (40 mg/ml) in 25 mM HEPES-KOH pH 7.8, 130 mM KCl; GFP fusion proteins or GFP alone added at 500 nM; enrichment inside the gel over buffer after 30 min. The settings on record: both partners purified.
Data set [2] concerns the molecule itself. Kind of data set: hydrogel formation (gelation); purified fragment concentrated to 40 mg/ml (2 mM) in 2 M urea, 50 mM HEPES-NaOH pH 8.0, 1 mM TCEP, 1 mM EDTA, left in silicone tubing at room temperature, squeezed out and photographed.

B1: full-length PEX5 fused to GFP (receptor)
chain: not shown
modifications: C-terminal GGSGGS linker and mEGFP left out
In the case of B1, the “fold enrichment inside the gel over buffer” value in data set [1] was approximately 20 fold.

Turning to B2, the binding result in data set [2] was “binds”.

B3: isolated YG domain of Arabidopsis thaliana PEX13, amino acids 76–193 (domain or fragment)
chain: EQQNYGSTMGGGYGSNLGMTSGYGSGTYGSALGGYGSSYGGGMYGGSSMYRGGYGGGGLYGSSGMYGGGAMGGYGGTMGGYGMGMGTGMGMGMGMGMGGPYGSQDPNDPFNQPPSPPGC
notes: PEX13 of Arabidopsis thaliana, GenBank NP_187412.1, amino acids 76-193 (YG domain); single engineered cysteine at the C terminus for covalent derivatization; also called YG domain alone; source: E. coli BL21 Rosetta 2(DE3), purified under denaturing conditions (Ni-NTA), tag removed with TEV protease; not shown: 14×His, N-terminal, cleaved
For B3, the binding result in data set [2] is “binds”.

The values above are taken from publication PMC9795577, “Protein import into peroxisomes occurs through a nuclear pore-like phase” (Science (New York, N.Y.), 2022).
